Assay results from US20130052176, “APTAMER FOR NGF AND USE THEREOF” (SHIONOGI & CO., LTD, published 2013).

How the values were obtained:
[1] = target: T1, NGF (nerve growth factor) (human, UniProt P01138 P01138:122-241); assay: cell_activity; neurite outgrowth, NGF 0.38 nM; SPR binding; blocks NGF-TrkA and NGF-p75; TF-1 IC50 0.07 nM; conditions: tags: amine-coupled to CM5 chip in SPR; soluble in cell assays; chain copies: 2
NT-3 = target: T2, NT-3 (human, UniProt P20783 P20783:139-257); assay: SPR; binding to NT-3 not observed; TF-1 IC50 >1000 nM; conditions: tags: R&D Systems; chain copies: 2
T2 sequence: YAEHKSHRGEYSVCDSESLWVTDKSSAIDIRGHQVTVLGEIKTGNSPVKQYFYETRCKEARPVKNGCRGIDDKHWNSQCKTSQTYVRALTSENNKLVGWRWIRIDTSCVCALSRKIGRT

[2] = target: T1, NGF (nerve growth factor); assay: cell_activity; neurite outgrowth, NGF 0.38 nM; SPR binding; TF-1 IC50 0.128 nM; conditions: tags: amine-coupled to CM5 chip in SPR; soluble in cell assays; chain copies: 2
Description: (§1) The neurite outgrowth inhibitory activity of the aptamer obtained in Example 1 was evaluated by using Neuroscreen-1 cell, which is a subclone of PC-12 cells.
(§2) The cells (2500 cells per well) were cultured for one day in an RPMI-1640 medium containing 2.5% horse serum and 1.25% fetal bovine serum in a 96 well flat-bottom plate coated with collagen type IV. […] Two days later, the cytoplasm and nuclei were stained using Cellomics Neurite Outgrowth Kit (manufactured by Thermo Scientific), and neurite length per cell was measured by Cellomics ArrayScan VTI (manufactured by Thermo Scientific). With the neurite length per cell obtained by the addition of NGF alone as inhibitory activity 0%, and that of the cell obtained by NGF free culture for 2 days as inhibitory activity 100%, the inhibitory activity of the aptamer was calculated from the neurite length per cell obtained by culturing with the addition of NGF and the aptamer in mixture. When the inhibitory activity was 0% or below, ‘0%’ is indicated.

[3] = target: T1, NGF (nerve growth factor); assay: cell_activity; neurite outgrowth, NGF 0.38 nM; SPR binding; TF-1 IC50 0.061 nM; conditions: tags: amine-coupled to CM5 chip in SPR; soluble in cell assays; chain copies: 2
Description: as §1, §2

[4] = target: T1, NGF (nerve growth factor); assay: cell_activity; neurite outgrowth, NGF 0.38 nM; SPR binding; TF-1 IC50 0.108 nM; conditions: tags: amine-coupled to CM5 chip in SPR; soluble in cell assays; chain copies: 2
Description: as §1, §2

[5] = target: T1, NGF (nerve growth factor); assay: cell_activity; neurite outgrowth, NGF 0.38 nM; SPR binding; TF-1 IC50 0.100 nM; conditions: tags: amine-coupled to CM5 chip in SPR; soluble in cell assays; chain copies: 2
Description: as §1, §2

[6] = target: T1, NGF (nerve growth factor); assay: cell_activity; neurite outgrowth, NGF 1.1 nM; SPR binding; TF-1 IC50 >10 nM; conditions: tags: amine-coupled to CM5 chip in SPR; soluble in cell assays; chain copies: 2
Description: as §1, §2

[7] = target: T1, NGF (nerve growth factor); assay: cell_activity; neurite outgrowth, NGF 0.38 nM; SPR binding; TF-1 IC50 <0.1 nM; conditions: tags: amine-coupled to CM5 chip in SPR; soluble in cell assays; chain copies: 2
Description: as §1, §2

[8] = target: T1, NGF (nerve growth factor); assay: cell_activity; neurite outgrowth, NGF 1.1 nM; SPR binding; TF-1 IC50 6.8 nM; conditions: tags: amine-coupled to CM5 chip in SPR; soluble in cell assays; chain copies: 2
Description: as §1, §2

[9] = target: T1, NGF (nerve growth factor); assay: cell_activity; neurite outgrowth, NGF 0.38 nM; SPR binding; TF-1 IC50 0.062 nM; conditions: tags: amine-coupled to CM5 chip in SPR; soluble in cell assays; chain copies: 2
Description: as §1, §2

[10] = target: T1, NGF (nerve growth factor); assay: cell_activity; neurite outgrowth, NGF 1.1 nM; SPR binding; TF-1 IC50 4.3 nM; conditions: tags: amine-coupled to CM5 chip in SPR; soluble in cell assays; chain copies: 2
[11] = target: T1, NGF (nerve growth factor); assay: cell_activity; neurite outgrowth, NGF 1.1 nM; SPR binding; TF-1 IC50 2.4 nM; conditions: tags: amine-coupled to CM5 chip in SPR; soluble in cell assays; chain copies: 2
Description: as §1, §2

[12] = target: T1, NGF (nerve growth factor); assay: cell_activity; neurite outgrowth, NGF 0.38 nM; SPR binding; TF-1 IC50 0.073 nM; conditions: tags: amine-coupled to CM5 chip in SPR; soluble in cell assays; chain copies: 2
Description: as §1, §2

[13] = target: T1, NGF (nerve growth factor); assay: cell_activity; neurite outgrowth, NGF 0.38 nM; SPR binding; TF-1 IC50 0.072 nM; conditions: tags: amine-coupled to CM5 chip in SPR; soluble in cell assays; chain copies: 2
Description: as §1, §2

[14] = target: T1, NGF (nerve growth factor); assay: cell_activity; neurite outgrowth, NGF 0.38 nM; SPR binding; TF-1 IC50 0.074 nM; conditions: tags: amine-coupled to CM5 chip in SPR; soluble in cell assays; chain copies: 2
Description: as §1, §2

T1 sequence (P01138 122-241, one chain of several): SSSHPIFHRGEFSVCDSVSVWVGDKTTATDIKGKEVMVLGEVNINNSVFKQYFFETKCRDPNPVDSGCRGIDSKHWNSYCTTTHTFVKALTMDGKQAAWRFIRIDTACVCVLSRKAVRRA

B1: aptamer ID 26(2) (ssRNA)
RNA: GGGAGACUCGCCAGAGUUGAAAGAAACCCAAAUAAGUGUGCGCAC
modifications: 2'-F pyrimidines; 2'-OMe purines except 2'-OH at 3,5,19-22,24,26; 5' idT and 3' idT
What does the source list for B1?
IC50 [1]: 0.06 nM; binding result (NT-3): no binding

B2: aptamer ID 26(43) (mixed)
RNA: GGGAGACUCGCCAGAGUUGAAAGAAACCCAAAUAAGUGUGCGCAC
modifications: 2'-F pyrimidines except dC at 7,9,11,12,29,45 and dT at 8,17,33,37; 2'-OMe purines except 2'-OH at 3,19,20,26; 5' idT and 3' idT
How did the IC50 [2] turn out when B2 was run?
The IC50 was 0.073 nM.

B3: aptamer ID 26(44) (ssRNA)
RNA: GGGAGACUCGCCAGAGUUGAAAGAAACCCAAAUAAGUGUGCGCAC
modifications: 2'-F pyrimidines except 2'-OMe at 7,11,12,17,33,45; 2'-OMe purines except 2'-OH at 3,19,20,26; 5' idT and 3' idT
How did the IC50 [3] turn out when B3 was run?
The IC50 was 0.074 nM.

B4: aptamer ID 26(51) (ssRNA)
RNA: GGGAGACUCGCCAGAGUUGAAAGAAACCCAAAUAAGUGUGCGCAC
modifications: 2'-F pyrimidines except 2'-OMe at 7,8,9,11,12,17,18,33,37,45; 2'-OMe purines except 2'-OH at 3,19,20; 5' idT and 3' idT
How did the IC50 [4] turn out when B4 was run?
The IC50 was 0.191 nM.

B5: aptamer ID 26(41) (mixed)
RNA: GGGAGACUCGCCAGAGUUGAAAGAAACCCAAAUAAGUGUGCGCAC
modifications: 2'-F pyrimidines except dC at 29 and dT at 37; 2'-OMe purines except 2'-OH at 3,19,20,26; 5' idT and 3' idT
How did the IC50 [5] turn out when B5 was run?
The IC50 was 0.104 nM.

For GGGAGACUCGCCAGAGUUGAAAGAAACCCAAAUAAGUGUGCGCAC (ssRNA, 2'-F pyrimidines; 2'-OMe at 22; other purines 2'-OH) [aptamer ID 26(8)], which IC50 [6] is on record?
The IC50 was less than 1 nM.

B6: aptamer ID 26(38) (ssRNA)
RNA: GGGAGACUCGCCAGAGUUGAAAGAAACCCAAAUAAGUGUGCGCAC
modifications: 2'-F pyrimidines except 2'-OMe at 7; 2'-OMe purines except 2'-OH at 3,19,20,26; PS between 20 and 21; 5' idT and 3' idT
With B6 as the binder, how does the IC50 [7] read?
The IC50 was 0.145 nM.

Which IC50 [8] does the source give for GGGAGACUCGCCAGAGUUGAAAGAAACCCAAAUAAGUGUGCGCAC (ssRNA, 2'-F pyrimidines; 2'-OMe at 1,2,4,5,23-26; other purines 2'-OH) [aptamer ID 26(4)] here?
Its IC50 is less than 1 nM.

B7: aptamer ID 26(49) (ssRNA)
RNA: GGGAGACUCGCCAGAGUUGAAAGAAACCCAAAUAAGUGUGCGCAC
modifications: 2'-F pyrimidines except 2'-OMe at 7,8,9,11,12,17,18,33,37,45; 2'-OMe purines except 2'-OH at 3,19,20,26; 5' idT and 3' idT
Which IC50 [9] does the source give for B7 here?
The IC50 was 0.059 nM.

How did the IC50 [10] turn out when GGGAGACUCGCCAGAGUUGAAAGAAACCCAAAUAAGUGUGCGCAC (ssRNA, 2'-F pyrimidines; 2'-OMe at 6,10,13-16; other purines 2'-OH) [aptamer ID 26(3)] was run?
Its IC50 is less than 1 nM.

With GGGAGACUCGCCAGAGUUGAAAGAAACCCAAAUAAGUGUGCGCAC (ssRNA, 2'-F pyrimidines; 2'-OMe at 21; other purines 2'-OH) [aptamer ID 26(7)] as the binder, how does the IC50 [11] read?
The IC50 was less than 1 nM.

B8: aptamer ID 26(42) (mixed)
RNA: GGGAGACUCGCCAGAGUUGAAAGAAACCCAAAUAAGUGUGCGCAC
modifications: 2'-F pyrimidines except dC at 9,29 and dT at 33,37; 2'-OMe purines except 2'-OH at 3,19,20,26; 5' idT and 3' idT
For B8, which IC50 [12] is on record?
The IC50 was 0.083 nM.

B9: aptamer ID 26(52) (ssRNA)
RNA: GGGAGACUCGCCAGAGUUGAAAGAAACCCAAAUAAGUGUGCGCAC
modifications: 2'-F pyrimidines except 2'-OMe at 7,8,9,11,12,17,18,33,37,39,45; 2'-OMe purines except 2'-OH at 3,19,20,26; 5' idT and 3' idT
How did the IC50 [13] turn out when B9 was run?
Its IC50 is 0.101 nM.

B10: aptamer ID 26(13) (ssRNA)
RNA: GGGAGACUCGCCAGAGUUGAAAGAAACCCAAAUAAGUGUGCGCAC
modifications: 2'-F pyrimidines; 2'-OMe purines except 2'-OH at 3,5,19,20,22,24,26; 5' idT and 3' idT
B10 was tested. Which IC50 [14] did it give?
Its IC50 is 0.039 nM.
